Experimental data reported in US20110294738A1, “PTHR1 RECEPTOR COMPOUNDS” (priority 2008, published 2011).
Where “and” joins values, the source holds several entries; their conditions need not be identical. Equal entries are not always repeated. * marks the point of attachment. Palmitoyl = CCCCCCCCCCCCCCCC(=O)*

B1: Compound 95 (peptide)
peptide: Palmitoyl-AGRSDTRQQYRKLLFS-NH2
SMILES: CCCCCCCCCCCCCCCC(=O)N[C@@H](C)C(=O)NCC(=O)N[C@@H](CCCNC(=N)N)C(=O)N[C@@H](CO)C(=O)N[C@@H](CC(=O)O)C(=O)N[C@H](C(=O)N[C@@H](CCCNC(=N)N)C(=O)N[C@@H](CCC(N)=O)C(=O)N[C@@H](CCC(N)=O)C(=O)N[C@@H](Cc1ccc(O)cc1)C(=O)N[C@@H](CCCNC(=N)N)C(=O)N[C@@H](CCCCN)C(=O)N[C@@H](CC(C)C)C(=O)N[C@@H](CC(C)C)C(=O)N[C@@H](Cc1ccccc1)C(=O)N[C@@H](CO)C(N)=O)[C@@H](C)O
B2: Compound 35 (peptide)
peptide: Palmitoyl-YLHSLIFMAFFSEKKYLWGFT-NH2
SMILES: CCCCCCCCCCCCCCCC(=O)N[C@@H](Cc1ccc(O)cc1)C(=O)N[C@@H](CC(C)C)C(=O)N[C@@H](Cc1c[nH]cn1)C(=O)N[C@@H](CO)C(=O)N[C@@H](CC(C)C)C(=O)N[C@H](C(=O)N[C@@H](Cc1ccccc1)C(=O)N[C@@H](CCSC)C(=O)N[C@@H](C)C(=O)N[C@@H](Cc1ccccc1)C(=O)N[C@@H](Cc1ccccc1)C(=O)N[C@@H](CO)C(=O)N[C@@H](CCC(=O)O)C(=O)N[C@@H](CCCCN)C(=O)N[C@@H](CCCCN)C(=O)N[C@@H](Cc1ccc(O)cc1)C(=O)N[C@@H](CC(C)C)C(=O)N[C@@H](Cc1c[nH]c2ccccc12)C(=O)NCC(=O)N[C@@H](Cc1ccccc1)C(=O)N[C@H](C(N)=O)[C@@H](C)O)[C@@H](C)CC
B3: Compound 1 (peptide)
peptide: Palmitoyl-RRLHSTRNYIHMH-NH2
SMILES: CCCCCCCCCCCCCCCC(=O)N[C@@H](CCCNC(=N)N)C(=O)N[C@@H](CCCNC(=N)N)C(=O)N[C@@H](CC(C)C)C(=O)N[C@@H](Cc1c[nH]cn1)C(=O)N[C@@H](CO)C(=O)N[C@H](C(=O)N[C@@H](CCCNC(=N)N)C(=O)N[C@@H](CC(N)=O)C(=O)N[C@@H](Cc1ccc(O)cc1)C(=O)N[C@H](C(=O)N[C@@H](Cc1c[nH]cn1)C(=O)N[C@@H](CCSC)C(=O)N[C@@H](Cc1c[nH]cn1)C(N)=O)[C@@H](C)CC)[C@@H](C)O
B4: Compound 36 (peptide)
peptide: Palmitoyl-HSLIFMAFFSEKKYLWGFT-NH2
SMILES: CCCCCCCCCCCCCCCC(=O)N[C@@H](Cc1c[nH]cn1)C(=O)N[C@@H](CO)C(=O)N[C@@H](CC(C)C)C(=O)N[C@H](C(=O)N[C@@H](Cc1ccccc1)C(=O)N[C@@H](CCSC)C(=O)N[C@@H](C)C(=O)N[C@@H](Cc1ccccc1)C(=O)N[C@@H](Cc1ccccc1)C(=O)N[C@@H](CO)C(=O)N[C@@H](CCC(=O)O)C(=O)N[C@@H](CCCCN)C(=O)N[C@@H](CCCCN)C(=O)N[C@@H](Cc1ccc(O)cc1)C(=O)N[C@@H](CC(C)C)C(=O)N[C@@H](Cc1c[nH]c2ccccc12)C(=O)NCC(=O)N[C@@H](Cc1ccccc1)C(=O)N[C@H](C(N)=O)[C@@H](C)O)[C@@H](C)CC
B5: Compound 44 (peptide)
peptide: Palmitoyl-NIVRVLATKLRETNAGRSD-NH2
SMILES: CCCCCCCCCCCCCCCC(=O)N[C@@H](CC(N)=O)C(=O)N[C@H](C(=O)N[C@H](C(=O)N[C@@H](CCCNC(=N)N)C(=O)N[C@H](C(=O)N[C@@H](CC(C)C)C(=O)N[C@@H](C)C(=O)N[C@H](C(=O)N[C@@H](CCCCN)C(=O)N[C@@H](CC(C)C)C(=O)N[C@@H](CCCNC(=N)N)C(=O)N[C@@H](CCC(=O)O)C(=O)N[C@H](C(=O)N[C@@H](CC(N)=O)C(=O)N[C@@H](C)C(=O)NCC(=O)N[C@@H](CCCNC(=N)N)C(=O)N[C@@H](CO)C(=O)N[C@@H](CC(=O)O)C(N)=O)[C@@H](C)O)[C@@H](C)O)C(C)C)C(C)C)[C@@H](C)CC
B6: Compound 45 (peptide)
peptide: Palmitoyl-VRVLATKLRETNAGRSDTR-NH2
SMILES: CCCCCCCCCCCCCCCC(=O)N[C@H](C(=O)N[C@@H](CCCNC(=N)N)C(=O)N[C@H](C(=O)N[C@@H](CC(C)C)C(=O)N[C@@H](C)C(=O)N[C@H](C(=O)N[C@@H](CCCCN)C(=O)N[C@@H](CC(C)C)C(=O)N[C@@H](CCCNC(=N)N)C(=O)N[C@@H](CCC(=O)O)C(=O)N[C@H](C(=O)N[C@@H](CC(N)=O)C(=O)N[C@@H](C)C(=O)NCC(=O)N[C@@H](CCCNC(=N)N)C(=O)N[C@@H](CO)C(=O)N[C@@H](CC(=O)O)C(=O)N[C@H](C(=O)N[C@@H](CCCNC(=N)N)C(N)=O)[C@@H](C)O)[C@@H](C)O)[C@@H](C)O)C(C)C)C(C)C
B7: Compound 46 (peptide)
peptide: Palmitoyl-VLATKLRETNAGRSDTRQQ-NH2
SMILES: CCCCCCCCCCCCCCCC(=O)N[C@H](C(=O)N[C@@H](CC(C)C)C(=O)N[C@@H](C)C(=O)N[C@H](C(=O)N[C@@H](CCCCN)C(=O)N[C@@H](CC(C)C)C(=O)N[C@@H](CCCNC(=N)N)C(=O)N[C@@H](CCC(=O)O)C(=O)N[C@H](C(=O)N[C@@H](CC(N)=O)C(=O)N[C@@H](C)C(=O)NCC(=O)N[C@@H](CCCNC(=N)N)C(=O)N[C@@H](CO)C(=O)N[C@@H](CC(=O)O)C(=O)N[C@H](C(=O)N[C@@H](CCCNC(=N)N)C(=O)N[C@@H](CCC(N)=O)C(=O)N[C@@H](CCC(N)=O)C(N)=O)[C@@H](C)O)[C@@H](C)O)[C@@H](C)O)C(C)C
B8: Compound 47 (peptide)
peptide: Palmitoyl-KLRETNAGRSDTRQQRKLL-NH2
SMILES: CCCCCCCCCCCCCCCC(=O)N[C@@H](CCCCN)C(=O)N[C@@H](CC(C)C)C(=O)N[C@@H](CCCNC(=N)N)C(=O)N[C@@H](CCC(=O)O)C(=O)N[C@H](C(=O)N[C@@H](CC(N)=O)C(=O)N[C@@H](C)C(=O)NCC(=O)N[C@@H](CCCNC(=N)N)C(=O)N[C@@H](CO)C(=O)N[C@@H](CC(=O)O)C(=O)N[C@H](C(=O)N[C@@H](CCCNC(=N)N)C(=O)N[C@@H](CCC(N)=O)C(=O)N[C@@H](CCC(N)=O)C(=O)N[C@@H](CCCNC(=N)N)C(=O)N[C@@H](CCCCN)C(=O)N[C@@H](CC(C)C)C(=O)N[C@@H](CC(C)C)C(N)=O)[C@@H](C)O)[C@@H](C)O
B9: Compound 48 (peptide)
peptide: Palmitoyl-RETNAGRSDTRQQRKLLKS-NH2
SMILES: CCCCCCCCCCCCCCCC(=O)N[C@@H](CCCNC(=N)N)C(=O)N[C@@H](CCC(=O)O)C(=O)N[C@H](C(=O)N[C@@H](CC(N)=O)C(=O)N[C@@H](C)C(=O)NCC(=O)N[C@@H](CCCNC(=N)N)C(=O)N[C@@H](CO)C(=O)N[C@@H](CC(=O)O)C(=O)N[C@H](C(=O)N[C@@H](CCCNC(=N)N)C(=O)N[C@@H](CCC(N)=O)C(=O)N[C@@H](CCC(N)=O)C(=O)N[C@@H](CCCNC(=N)N)C(=O)N[C@@H](CCCCN)C(=O)N[C@@H](CC(C)C)C(=O)N[C@@H](CC(C)C)C(=O)N[C@@H](CCCCN)C(=O)N[C@@H](CO)C(N)=O)[C@@H](C)O)[C@@H](C)O
B10: Compound 7 (peptide)
peptide: Palmitoyl-AYFRRLHSTRNYIH-NH2
SMILES: CCCCCCCCCCCCCCCC(=O)N[C@@H](C)C(=O)N[C@@H](Cc1ccc(O)cc1)C(=O)N[C@@H](Cc1ccccc1)C(=O)N[C@@H](CCCNC(=N)N)C(=O)N[C@@H](CCCNC(=N)N)C(=O)N[C@@H](CC(C)C)C(=O)N[C@@H](Cc1c[nH]cn1)C(=O)N[C@@H](CO)C(=O)N[C@H](C(=O)N[C@@H](CCCNC(=N)N)C(=O)N[C@@H](CC(N)=O)C(=O)N[C@@H](Cc1ccc(O)cc1)C(=O)N[C@H](C(=O)N[C@@H](Cc1c[nH]cn1)C(N)=O)[C@@H](C)CC)[C@@H](C)O
B11: Compound 9 (peptide)
peptide: Palmitoyl-LAYFRRLHSTRNYI-NH2
SMILES: CCCCCCCCCCCCCCCC(=O)N[C@@H](CC(C)C)C(=O)N[C@@H](C)C(=O)N[C@@H](Cc1ccc(O)cc1)C(=O)N[C@@H](Cc1ccccc1)C(=O)N[C@@H](CCCNC(=N)N)C(=O)N[C@@H](CCCNC(=N)N)C(=O)N[C@@H](CC(C)C)C(=O)N[C@@H](Cc1c[nH]cn1)C(=O)N[C@@H](CO)C(=O)N[C@H](C(=O)N[C@@H](CCCNC(=N)N)C(=O)N[C@@H](CC(N)=O)C(=O)N[C@@H](Cc1ccc(O)cc1)C(=O)N[C@H](C(N)=O)[C@@H](C)CC)[C@@H](C)O
B12: Compound 49 (peptide)
peptide: Palmitoyl-TNAGRSDTRQQRKLLKSTL-NH2
SMILES: CCCCCCCCCCCCCCCC(=O)N[C@H](C(=O)N[C@@H](CC(N)=O)C(=O)N[C@@H](C)C(=O)NCC(=O)N[C@@H](CCCNC(=N)N)C(=O)N[C@@H](CO)C(=O)N[C@@H](CC(=O)O)C(=O)N[C@H](C(=O)N[C@@H](CCCNC(=N)N)C(=O)N[C@@H](CCC(N)=O)C(=O)N[C@@H](CCC(N)=O)C(=O)N[C@@H](CCCNC(=N)N)C(=O)N[C@@H](CCCCN)C(=O)N[C@@H](CC(C)C)C(=O)N[C@@H](CC(C)C)C(=O)N[C@@H](CCCCN)C(=O)N[C@@H](CO)C(=O)N[C@H](C(=O)N[C@@H](CC(C)C)C(N)=O)[C@@H](C)O)[C@@H](C)O)[C@@H](C)O
B13: Compound 33 (peptide)
peptide: Palmitoyl-HSLIFMAFFSEKKYL-NH2
SMILES: CCCCCCCCCCCCCCCC(=O)N[C@@H](Cc1c[nH]cn1)C(=O)N[C@@H](CO)C(=O)N[C@@H](CC(C)C)C(=O)N[C@H](C(=O)N[C@@H](Cc1ccccc1)C(=O)N[C@@H](CCSC)C(=O)N[C@@H](C)C(=O)N[C@@H](Cc1ccccc1)C(=O)N[C@@H](Cc1ccccc1)C(=O)N[C@@H](CO)C(=O)N[C@@H](CCC(=O)O)C(=O)N[C@@H](CCCCN)C(=O)N[C@@H](CCCCN)C(=O)N[C@@H](Cc1ccc(O)cc1)C(=O)N[C@@H](CC(C)C)C(N)=O)[C@@H](C)CC

The binders below were run against PTHR1 receptor.
PTHR1 receptor, sequence (P25961 whole entry): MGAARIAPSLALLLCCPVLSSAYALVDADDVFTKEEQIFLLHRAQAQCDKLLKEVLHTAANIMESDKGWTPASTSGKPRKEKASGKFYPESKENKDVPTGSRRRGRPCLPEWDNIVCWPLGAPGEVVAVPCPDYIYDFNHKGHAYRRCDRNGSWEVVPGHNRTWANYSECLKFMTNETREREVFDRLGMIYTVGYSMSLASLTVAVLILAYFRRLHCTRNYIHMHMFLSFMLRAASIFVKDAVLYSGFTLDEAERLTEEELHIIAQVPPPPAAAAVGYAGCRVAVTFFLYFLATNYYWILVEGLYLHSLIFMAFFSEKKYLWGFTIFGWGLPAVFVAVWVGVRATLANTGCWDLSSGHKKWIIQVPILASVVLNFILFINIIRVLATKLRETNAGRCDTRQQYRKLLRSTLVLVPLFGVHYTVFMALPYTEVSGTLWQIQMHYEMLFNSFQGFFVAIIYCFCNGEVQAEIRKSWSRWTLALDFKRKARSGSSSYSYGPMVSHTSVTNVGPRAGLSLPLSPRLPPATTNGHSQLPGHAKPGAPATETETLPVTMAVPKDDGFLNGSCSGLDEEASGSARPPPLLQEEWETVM
B1 showed a Fold Shift of EC50 of 19 fold and an Inhibition of Maximal Response of -5.7%. Work on B2 yielded a Fold Shift of EC50 of 1.1 fold and an Inhibition of Maximal Response of 24.5%. For B3, the Fold Shift of EC50 was 1.3 fold and the Inhibition of Maximal Response was 5.5%. With B4 the Fold Shift of EC50 was 1.2 fold and the Inhibition of Maximal Response was 5.9%. B5 gave a Fold Shift of EC50 of 2 fold and an Inhibition of Maximal Response of -8.3%. B6 showed a Fold Shift of EC50 of 1.4 fold and an Inhibition of Maximal Response of 9.1%. B7 gave a Fold Shift of EC50 of 0.9 fold and an Inhibition of Maximal Response of 20.3%. Work on B8 yielded a Fold Shift of EC50 of 2.7 fold and an Inhibition of Maximal Response of 8.3%. B9 was tested, and the Fold Shift of EC50 was 7 fold and the Inhibition of Maximal Response was -3.3%. B10 gave a Fold Shift of EC50 of 1.2 fold and an Inhibition of Maximal Response of 36%. For B11, the Fold Shift of EC50 was 1.1 fold and the Inhibition of Maximal Response was 12.7%. B12 was tested, and the Fold Shift of EC50 was 1.5 fold and 2.3 fold. For B13, the Fold Shift of EC50 was 1.1 fold and the Inhibition of Maximal Response was 27.5%.
